The values below come from article PMC11948038, “Evolutionary Pro‐To‐Thr Mutation in the Intrinsically Disordered Domain of ANP32 Family Members Modulates Their Target Binding Modes” (Advanced Science, 2025).

Ends that are not written are not given here.

Assay [1] deals with Heltog cells (HeLa cells constitutively expressing Cc-GFP). The assay is described as follows: Subcellular localization of Cc-GFP and ANP32A in Heltog cells after camptothecin. Type of assay: cell-based. Particulars: 20 µM CPT, 1 or 4 h, confocal microscopy. The protocol: After 1 h or 4 h of CPT treatment, nuclei were stained by incubating cells with 1 µg mL^−1 Hoechst (Sigma‐Aldrich) for 10 min at 37 °C. Cells were then rinsed in pre‐warmed PBS at 37 °C to remove media traces, fixed by immersing the coverslips in a 4% formaldehyde (Sigma‐Aldrich) solution prepared in PBS for 10 min at room temperature, and then washed in pre‐warmed PBS at 37 °C. Cells were dried by incubating the coverslips in absolute ethanol for 2 min. Afterward, coverslips were mounted into glass slides using N‐propyl gallate (Sigma‐Aldrich), to preserve the fluorescence, and sealed with nail polish. Images were obtained in a Zeiss LSM 7 DUO confocal microscope using a 63× oil objective. For calcium phosphate transfection, 2.5 × 10^6 HEK293T cells were cultured in 150 mm diameter plates. After 72 h of growth, media was refreshed prior to transfection. For subcellular localization assays; 50,000 Heltog cells were grown over coverslips placed in 15.6 mm well plates for 24 h before transfection. DNA damage was then induced by replacing media for one containing 20 µM of camptothecin (CPT) and incubating cells for 1 h or 4 h. […] Afterwards, coverslips were mounted into glass slides using N-propyl gallate (Sigma-Aldrich), to preserve the fluorescence, and sealed with nail polish. […]

Assay [2] addresses T1, cytochrome c (Homo sapiens, UniProt P99999).
T1 construct: obtained by immunizing male rabbits with full-length recombinant Cc; made in house; host or cells: E. coli BL21 (DE3)
The assay can be described thus: ITC titration of ANP32A/B C-terminal peptides with reduced Cc. The following applies: single binding-site model; 1 mM peptide onto 110 or 150 µM reduced Cc; 10 mM sodium phosphate pH 6.3; relative error 20%. The protocol:
Isothermal titration calorimetry (ITC) experiments were performed using a Nano ITC Low Volume instrument (TA Instruments, USA). The reference cell was filled with distilled water. Titration experiments between reduced Cc and ANP32A or ANP32A1‐167 consisted of 17 injections of 2.91 µL of a 400 µM reduced Cc solution into the sample cell containing 50 µM ANP32A construct. Both Cc and ANP32A proteins were dialyzed against 10 mM sodium phosphate buffer pH 7.4. Assays performed at moderate ionic strength used the same experimental setup, but proteins were dialyzed against 20 mM sodium phosphate pH 7.4 with 50 mM NaCl. […] ANP32A, ANP32A230‐249 and ANP32B232‐251 titration data were analyzed using Origin 7.0 (OriginLab), employing a single‐ligand binding site model or a two‐ligand binding sites model. […] ANP32A1‐167 titration data was processed and analyzed using NanoAnalyze software (TA instruments).
ITC experiments were performed using a Nano ITC Low Volume instrument (TA Instruments, USA). […] ANP32A, ANP32A230-249 and ANP32B232-251 titration data was analyzed using Origin 7.0 (OriginLab), employing a single ligand binding site model or a two ligand binding sites model. […] ANP32A1-167 titration data were processed and analyzed using NanoAnalyze software (TA instruments).
A general note: Isothermal titration calorimetry measures the heat released or taken up as one component is titrated into another.

The subject of a further assay is 15N-labeled Cc. The assay is described as follows: NMR titration (1H-15N HSQC) of 15N Cc with ANP32A or ANP32A1-167. Particulars: low ionic strength; 25 °C. Type of assay: binding. The protocol: NMR titrations of 30 µM ^15N reduced Cc with ^14N ANP32A constructs were followed by 1D ^1H and 2D ^1H-^15N heteronuclear single quantum correlation (HSQC) spectra on a Bruker Avance-III 600 MHz equipped with a cryoprobe at 25 °C. ^15N-labelled reduced Cc (in 10 mM sodium phosphate buffer, pH 7.4) was titrated with increasing amounts of ^14N ANP32A dialyzed against the same buffer. Reduced ^15N Cc and ^14N ANP32A1-167 construct were titrated in 5 mM sodium phosphate buffer pH 6.4. To maintain the redox state of Cc and to adjust the lock signal on the NMR spectrometer, 0.1 mM of sodium ascorbate and 10% of D2O were added, respectively. Data were acquired and processed using TopSpin NMR 3.5pl7 software (Bruker).
Line broadening and chemical-shift perturbation analysis were performed using the Sparky 3 NMR assignment tool (T.D. Goddard and D.G. Kneller, University of California San Francisco, USA). Assignment of ANP32A230-249 and ANP32B232-251 peptides was performed using NMRFAM-SPARKY software distribution (National Magnetic Resonance Facility at Madison) and further imported to CCPNMR ^[1], whereby distance restraints were calculated using its built-in module.

The target in assay [3] is T1, cytochrome c. The assay is described as follows: ITC titration of full-length ANP32A or ANP32A1-167 with reduced Cc. Type of assay: binding. The following applies: for Kd: relative error 20%; for n (reaction stoichiometry): error 0.03; for ΔG: error 0.1 kcal/mol. As for the experimental part:
Isothermal titration calorimetry (ITC) experiments were performed using a Nano ITC Low Volume instrument (TA Instruments, USA). The reference cell was filled with distilled water. Titration experiments between reduced Cc and ANP32A or ANP32A1‐167 consisted of 17 injections of 2.91 µL of a 400 µM reduced Cc solution into the sample cell containing 50 µM ANP32A construct. Both Cc and ANP32A proteins were dialyzed against 10 mM sodium phosphate buffer pH 7.4. Assays performed at moderate ionic strength used the same experimental setup, but proteins were dialyzed against 20 mM sodium phosphate pH 7.4 with 50 mM NaCl. Assays using ANP32A230‐249 or ANP32B232‐251 peptides were performed by titrating 1 mM peptide solution onto 110 or 150 µM reduced Cc solutions, respectively, or onto 100 µM HuR106‐326 solution, following the same injection configuration as described for ANP32A proteins. Cc and HuR106‐326 solutions were dialyzed against 10 mM sodium phosphate buffer pH 6.3; peptides were dissolved in the same solution. The stirring speed was set to 200 rpm for HuR106‐326 titration experiments and to 300 rpm for Cc titration experiments, to ensure cell homogeneity. ANP32A, ANP32A230‐249 and ANP32B232‐251 titration data were analyzed using Origin 7.0 (OriginLab), employing a single‐ligand binding site model or a two‐ligand binding sites model. In the last case, no binding cooperativity was observed. ANP32A1‐167 titration data was processed and analyzed using NanoAnalyze software (TA instruments).
ITC experiments were performed using a Nano ITC Low Volume instrument (TA Instruments, USA). The reference cell was filled with distilled water. Titration experiments between reduced Cc and ANP32A or ANP32A1-167 consisted of 17 injections of 2.91 µL of a 400 µM reduced Cc solution into the sample cell containing 50 µM ANP32A construct. Both Cc and ANP32A proteins were dialyzed against 10 mM sodium phosphate buffer pH 7.4. Assays performed at moderate ionic strength used the same experimental setup, but proteins were dialyzed against 20 mM sodium phosphate pH 7.4 with 50 mM NaCl. Assays using ANP32A230-249 and ANP32B232-251 peptides were performed by titrating 1 mM peptide solution onto 110 or 150 µM reduced Cc solutions, respectively, or onto 100 µM HuR106-326 solution, following the same injection configuration as described for ANP32A proteins. Cc and HuR106-326 solutions were dialyzed against 10 mM sodium phosphate buffer pH 6.3; peptides were dissolved in the same solution. The stirring speed was set to 200 rpm for HuR106-326 titration experiments and to 300 rpm for Cc titration experiments, to ensure cell homogeneity. ANP32A, ANP32A230-249 and ANP32B232-251 titration data was analyzed using Origin 7.0 (OriginLab), employing a single ligand binding site model or a two ligand binding sites model. In the last case, no binding cooperativity was observed. ANP32A1-167 titration data were processed and analyzed using NanoAnalyze software (TA instruments).

The test system of a further assay is recombinant Cc. The assay can be described thus: Cc pulldown assay with HEK293T extracts. The following applies: HEK293T extracts expressing ANP32A-c-myc, Western blot. Type of assay: binding. As for the experimental part:
Pulldown assays were performed as previously described.^[ [31] ^] Briefly, transfected HEK293T cells were resuspended in a lysis buffer containing 10 mM Tricine‐NaOH pH 8.5, 1 mM PMSF, and cOmplete protease inhibitors (Roche). Afterward, cells were lysed by sonication (10 s, 10% amplitude, on ice), and the resulting debris was discarded after 15 min of centrifugation at 13300 rpm and 4 °C. More details on the procedure were given in the Supporting Information Appendix.
Pulldown assays were performed as previously described ^[6^]. Briefly, transfected HEK293T cells were resuspended in a lysis buffer containing 10 mM Tricine-NaOH pH 8.5, 1 mM PMSF and cOmplete™ protease inhibitors (Roche). Afterwards, cells were lysed by sonication (10 s, 10% amplitude, on ice), and the resulting debris was discarded after 15 min of centrifugation at 13,300 rpm and 4 °C.
Cc pulldown assays were carried out by incubating cell extracts with 100 µg of recombinant Cc for 16 h at 4 °C in batch. A carboxymethylcellulose matrix (Whatman) was added, and the mixture was incubated for 30 min at 4 °C in batch. To remove possible non-specific binding, the matrix was washed 3 times with 1 mL of washing buffer containing 10 mM Tricine-NaOH pH 8.5, 20 mM NaCl, 1 mM PMSF and cOmplete™ protease inhibitors. […]

A further assay relates to histone H3. The assay is described as follows: Coimmunoprecipitation of c-myc-ANP32A/B with histone H3. Particulars: anti-c-myc, Western blot; representative of three experiments. Type of assay: binding. The protocol: HEK293T cells were transfected with a plasmid encoding ANP32A/b-c-myc. 24 h after transfection, cells were collected for lysates preparation in buffer containing 20 mM Tris-HCl pH 7.5, 100 mM NaCl, 0.5% NP40, 0.1 mM PMSF and cOmplete™. Cells were lysed by sonication and precleared by incubation with sepharose-A beads (GE Healthcare, GE17-5280-01) for 1 h at 4 °C. The lysates were then incubated with anti-c-myc (see Pull-down assays) over night at 4 °C and subsequently with sepharose-A beads (GE Healthcare, GE17-5280-01) for 1 h at room temperature with rotation. Following 6 washes with PBS, the samples were resuspended in SDS loading buffer and analyzed by western blotting.

Setting [4] is: low ionic strength 25 mM, first listed of two independent sites, 10 mM sodium phosphate pH 7.4.
[5] abbreviates: low ionic strength 25 mM, second listed of two independent sites, 10 mM sodium phosphate pH 7.4.
Setting [6] is: moderate ionic strength 100 mM, single site, 20 mM sodium phosphate pH 7.4, 50 mM NaCl.
[7] abbreviates: moderate ionic strength 100 mM, single site, 20 mM sodium phosphate pH 7.4, 50 mM NaCl, error 0.4 kcal/mol.

T1 sequence (P99999 whole entry): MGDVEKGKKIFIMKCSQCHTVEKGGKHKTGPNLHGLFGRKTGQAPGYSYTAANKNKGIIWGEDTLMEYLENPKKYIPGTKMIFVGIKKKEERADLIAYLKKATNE

Consider `CC[C@@]1(O)C(=O)OCc2c1cc1n(c2=O)Cc2cc3ccccc3nc2-1` [camptothecin], for which, in assay [1], the “Cc-GFP localization after camptothecin, in words” value is reported as “Cc‐GFP translocated into the cell nucleus”.

As for “EEERGQKRKRETEDEGEDDD [ANP32A230‐249 P241T]”, the Kd (usually the concentration at which binding is half-saturated) on cytochrome c [2] was 190 µM.

As to “ANP32A: full-length recombinant acidic leucine‐rich nuclear phosphoprotein 32 A, histone chaperone”, the “chemical-shift perturbations of Cc amide signals, in words” value in the assay on 15N-labeled Cc is “specific chemical‐shift perturbations and substantial broadening”. Also, the Kd with cytochrome c [3] (low ionic strength 25 mM, first listed of two independent sites, 10 mM sodium phosphate pH 7.4, 400 µM reduced Cc into 50 µM ANP32A) is 3.6 µM; with cytochrome c [3] (low ionic strength 25 mM, second listed of two independent sites, 10 mM sodium phosphate pH 7.4, 400 µM reduced Cc into 50 µM ANP32A) it was 34 µM; with cytochrome c [3] (setting [6]) it was 32 µM. Further, the “n (reaction stoichiometry)” value with cytochrome c [3] (setting [4]) is 0.65; with cytochrome c [3] (setting [5]) it was 0.65; with cytochrome c [3] (setting [6]), 0.60. Moreover, the ΔG is -7.4 kcal/mol with cytochrome c [3] (setting [4]), -6.1 kcal/mol with cytochrome c [3] (setting [5]) and -6.1 kcal/mol with cytochrome c [3] (setting [6]). Besides, the ΔH in the assay with cytochrome c [3] (low ionic strength 25 mM, first listed of two independent sites, 10 mM sodium phosphate pH 7.4, error 0.4 kcal/mol) came out at 0.4 kcal/mol; in the assay with cytochrome c [3] (setting [7]) it was 1.5 kcal/mol. Besides, the “binding to Cc by ITC, in words” value in the assay with cytochrome c [3] (low ionic strength (25 mM)) is listed as “two molecules of Cc bind the ANP32A LCAR at independent binding sites, with no observed cooperativity”; with cytochrome c [3] (moderate ionic strength (100 mM)), “one of the two binding sites was lost”. Besides, the “–TΔS” value in the assay with cytochrome c [3] (setting [7]) is -7.6 kcal/mol. Further, the “Cc pulldown result, in words” value in the assay on recombinant Cc was “Cc interacts with ANP32A”. Moreover, in the assay with histone H3, the “coimmunoprecipitation of histone H3, in words” value is recorded as “H3 binds both ANP32 proteins in a similar manner”.

The compound “EEERGEKRKRETEDEGEDDD [ANP32A230‐249 Q235E/P241T]” displayed a Kd on cytochrome c [2] of 190 µM.
